From patent US20140377805A1 (published 2014) come the findings set out here.

The assay deals with T1, recombinant human IL-1α (human, UniProt P01583 113-271).
T1 sequence (looked up): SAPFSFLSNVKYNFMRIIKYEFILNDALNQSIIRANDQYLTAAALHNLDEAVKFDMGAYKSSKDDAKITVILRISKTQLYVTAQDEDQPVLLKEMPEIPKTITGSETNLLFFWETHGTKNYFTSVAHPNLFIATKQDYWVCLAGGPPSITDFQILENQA
The experiment in a line: cell-based or functional assay.

B1: hIL-1a/bDVD1-Ig (bispecific antibody, human IgG1, kappa)
heavy: not shown
light: NIVLTQSPASLAVSLGQRATISCRASESVDSYGNSYMHWYQQKPGQPPKLLIYLASNLESGVPARFSGSGSRTDFTLTIDPVEADDAATYYCQQNNEDPFTFGSGTKLEIKRNIQMTQTTSSLSASLGDRVTISCRASQDISNCLNWYQQKPDGTVKLLIYYTSRLHSGVPSRFSGSGSGTDYSLTISNLEQEDIATYFCQQGKTLPYAFGGGTKLEINRTVAAPSVFIFPPSDEQLKSGTASVVCLLNNFYPREAKVQWKVDNALQSGNSQESVTEQDSKDSTYSLSSTLTLSKADYEKHKVYACEVTHQGLSSPVTKSFNRGEC
On to B1, for which the “neutralizing activity in the MRC-5 bioassay, fold less than the chimeric Abs” value was determined as 3 fold.
